Measured values taken from patent US20250295802A1, “HER3 ANTIBODY-DRUG CONJUGATE AND USE THEREOF” (DUALITY BIOLOGICS (SUZHOU) CO., LTD., priority 2022, published 2025).
Several values for one entry are separate records, joined by “and”; a condition that tells them apart may be missing. Equal entries are not always repeated.

Tests used:
human HER3-huFc [1] = target: T1, human HER3-huFc (human, UniProt P21860 20-643); assay: ELISA, antigen coated
T1 construct: also called huHER3; not shown: human Fc (huFc)
Description: (§1) ELISA assay: human HER2-ex-huFc, human HER3-huFc, and human EGFR-his were diluted to 2 μg/mL and 50 μL/well in a 96-well plate and incubated at 4° C. overnight. The plate was washed with 0.5×PBST, then incubated with 100 μL of a blocking buffer (PBS+3% BSA) at 37° C. for 2 h, and washed with 0.5×PBST. The 3F8 antibody was diluted with the blocking buffer in a 1:3 serial gradient, added at 50 μL/well, incubated at 37° C. for 40-50 min, and then washed with 0.5×PBST. […] Prior to assay, 50 μL of luminol buffer A+B was added to each well in a 1:1 mix.
(§2) EC50 of murine 3F8 binding to human HER3, HER2, and EGFR was analyzed using GraphPad Prism 6.0.

[2] = target: T2, human EGFR expressed on SP2/0 cells (human, UniProt P00533 25-1210); assay: flow cytometry (FACS) on SP2/0 cells overexpressing human EGFR, PE anti-mouse secondary antibody
T2 construct: whole, on cells; also called SP2/0-EGFR cells
Description: (§3) FACS assay: the cultured cells were digested with 0.25% trypsin-EDTA and then centrifuged at 1500 rpm for 5 min. The cell pellets were regenerated into 5×10⁶ cells/mL using a PBS FACS solution containing 5% FBS and 0.2% ProClin300. 50 μL of the cell suspension was incubated with 100 μL of the primary antibody at a concentration of 1 μg/mL on ice for 1 h. The cells were washed twice with the FACS solution. The pellets were regenerated using 100 μL of a FACS solution containing goat anti-mouse IgG-PE (1:1000 dilution) and incubated on ice in the dark for 1 h. The cells were then washed twice and resuspended in 200 μL of the FACS solution.
(§4) Murine 3F8 was co-incubated with SP2/0 wild-type cells or cells overexpressing HER3, HER2 or EGFR. The binding strength was measured in a FACS instrument with a PE-anti-mouse secondary antibody.

human HER2-ex-huFc = target: T3, human HER2-ex-huFc (human, UniProt P04626 23-652); assay: ELISA on coated antigen, luminescence readout
T3 construct: extracellular domain; 'ex' is read as extracellular domain; also called huHER2; not shown: human Fc (huFc)
Description: as §1
(§5) The binding affinities of murine 3F8 to human HER3, HER2 and EGFR were determined by ELISA.

human EGFR-his = target: T4, human EGFR-his (human, UniProt P00533 25-645); assay: ELISA on coated antigen, luminescence readout
T4 construct: also called huEGFR; not shown: His tag
Description: as §1, §5

[3] = target: T5, human HER2 expressed on SP2/0 cells (human, UniProt P04626 23-1255); assay: flow cytometry (FACS) on SP2/0 cells overexpressing human HER2, PE anti-mouse secondary antibody
T5 construct: whole, on cells; also called SP2/0-HER2 cells
Description: as §3, §4

human HER3-huFc [4] = target: T1, human HER3-huFc; assay: ELISA
cynomolgus monkey HER3 [5] = target: cynomolgus monkey HER3 (cynomolgus monkey, UniProt G7PIG5 20-643); assay: ELISA
Chain of cynomolgus monkey HER3 (cynomolgus monkey, UniProt G7PIG5 20-643) (G7PIG5 entry or part of it): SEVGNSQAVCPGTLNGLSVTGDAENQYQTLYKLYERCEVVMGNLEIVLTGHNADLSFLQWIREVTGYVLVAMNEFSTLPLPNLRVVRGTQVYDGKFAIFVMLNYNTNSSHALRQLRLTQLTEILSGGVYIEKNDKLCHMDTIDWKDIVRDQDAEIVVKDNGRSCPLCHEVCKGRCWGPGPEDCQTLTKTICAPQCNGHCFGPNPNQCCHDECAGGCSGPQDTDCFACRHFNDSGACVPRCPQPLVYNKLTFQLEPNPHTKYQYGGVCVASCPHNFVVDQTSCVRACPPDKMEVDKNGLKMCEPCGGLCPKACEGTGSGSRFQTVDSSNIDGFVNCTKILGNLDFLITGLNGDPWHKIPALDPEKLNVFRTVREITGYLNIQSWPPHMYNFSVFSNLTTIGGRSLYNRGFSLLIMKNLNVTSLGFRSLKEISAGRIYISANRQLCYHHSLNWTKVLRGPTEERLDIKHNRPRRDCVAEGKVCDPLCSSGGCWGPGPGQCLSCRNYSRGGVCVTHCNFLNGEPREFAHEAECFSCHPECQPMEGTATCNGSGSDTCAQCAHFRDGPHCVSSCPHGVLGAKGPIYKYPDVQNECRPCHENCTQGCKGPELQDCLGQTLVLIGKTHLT

mouse HER3 [6] = target: mouse HER3 (mouse, UniProt Q61526 20-641, limits assumed); assay: ELISA on coated antigen, luminescence readout
Chain of mouse HER3 (mouse, UniProt Q61526 20-641, limits assumed) (Q61526 20-641 limits assumed): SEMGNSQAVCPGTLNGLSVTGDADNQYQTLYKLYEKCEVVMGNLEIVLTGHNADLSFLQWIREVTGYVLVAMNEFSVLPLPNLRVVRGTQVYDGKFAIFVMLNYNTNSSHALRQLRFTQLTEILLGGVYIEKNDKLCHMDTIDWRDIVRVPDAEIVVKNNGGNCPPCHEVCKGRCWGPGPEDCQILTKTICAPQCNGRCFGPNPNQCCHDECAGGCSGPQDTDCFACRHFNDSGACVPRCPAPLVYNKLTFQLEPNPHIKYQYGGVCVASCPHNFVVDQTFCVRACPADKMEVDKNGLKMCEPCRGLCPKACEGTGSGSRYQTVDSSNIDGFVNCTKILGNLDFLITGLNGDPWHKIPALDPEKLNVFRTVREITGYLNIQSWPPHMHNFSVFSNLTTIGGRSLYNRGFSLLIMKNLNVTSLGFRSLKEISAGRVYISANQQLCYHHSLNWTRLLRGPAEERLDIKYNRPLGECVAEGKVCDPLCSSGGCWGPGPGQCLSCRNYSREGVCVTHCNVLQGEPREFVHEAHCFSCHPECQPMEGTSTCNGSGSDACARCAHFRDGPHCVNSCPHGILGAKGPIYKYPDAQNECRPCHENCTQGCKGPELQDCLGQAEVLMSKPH

rat HER3 [7] = target: rat HER3 (rat, UniProt Q62799 20-641, limits assumed); assay: ELISA on coated antigen, luminescence readout
Chain of rat HER3 (rat, UniProt Q62799 20-641, limits assumed) (Q62799 20-641 limits assumed): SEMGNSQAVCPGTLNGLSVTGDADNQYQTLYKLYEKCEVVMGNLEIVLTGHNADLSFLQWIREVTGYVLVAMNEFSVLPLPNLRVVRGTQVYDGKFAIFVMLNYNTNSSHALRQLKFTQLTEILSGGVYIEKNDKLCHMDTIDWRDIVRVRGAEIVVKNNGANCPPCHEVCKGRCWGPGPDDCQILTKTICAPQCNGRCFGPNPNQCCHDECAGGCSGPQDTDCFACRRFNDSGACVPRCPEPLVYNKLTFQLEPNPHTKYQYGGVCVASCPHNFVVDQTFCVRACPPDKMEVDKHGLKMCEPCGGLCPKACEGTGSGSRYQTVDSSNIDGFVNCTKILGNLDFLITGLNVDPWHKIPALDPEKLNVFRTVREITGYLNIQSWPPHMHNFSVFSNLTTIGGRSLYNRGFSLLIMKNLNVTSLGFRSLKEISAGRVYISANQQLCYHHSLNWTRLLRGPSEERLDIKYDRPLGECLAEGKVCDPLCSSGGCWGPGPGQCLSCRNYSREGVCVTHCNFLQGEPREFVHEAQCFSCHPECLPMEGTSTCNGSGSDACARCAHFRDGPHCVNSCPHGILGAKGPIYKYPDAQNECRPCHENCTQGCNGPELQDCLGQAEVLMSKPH

[8] = tested on: SP2/0 wild-type cells or cells overexpressing HER2 or EGFR; assay: FACS binding of murine 3F8 to SP2/0 wild-type, HER2 or EGFR cells; design: species or system human
Description: (§6) Cell culture: SP2/0, SP2/0-HER3, SP2/0-HER2, SP2/O-EGFR, NCI-N87, MDA-MB-468, MDA-MB-453, 7901, HT29, MCF-7, and SK-BR-3 used in the study were purchased from ATCC and cultured using the appropriate media recommended by ATCC. SP2/0-EGFR, SP2/0-HER2, and SP2/0HER3 cells stably expressing human EGFR, HER2 and HER3 were generated in house.
as §3, with “5×10^6” for “5×10⁶”
as §4

HER3 = target: T6, HER3 (Homo sapiens, UniProt P21860); assay: ELISA binding to human HER3
T6 construct: human Fc (huFc)
Description: (§7) ELISA assay: human HER2-ex-huFc, human HER3-huFc, and human EGFR-his were diluted to 2 μg/mL and 50 μL/well in a 96-well plate and incubated at 4° C. overnight. The plate was washed with 0.5×PBST, then incubated with 100 μL of a blocking buffer (PBS+3% BSA) at 37° C. for 2 h, and washed with 0.5×PBST. The 3F8 antibody was diluted with the blocking buffer in a 1:3 serial gradient, added at 50 μL/well, incubated at 37° C. for 40-50 min, and then washed with 0.5×PBST. Goat anti-mouse IgG-HRP (Southern Biotech, 1030-05) was diluted at 1:20000 with the blocking buffer, added at 50 μL/well, incubated in the dark for 30 min, and then washed with 0.5×PBST. Prior to assay, 50 μL of luminol buffer A+B was added to each well in a 1:1 mix.
as §5, §2
(§8) The species selectivity of murine 3F8 to human, monkey, rat and mouse HER3 was determined by ELISA.
(§9) EC50 of murine 3F8 binding to human, monkey, rat and mouse HER3 was analyzed using GraphPad Prism 6.0.

cynomolgus monkey HER3 [9] = assay: ELISA binding to cynomolgus monkey HER3; settings: Table 2
Description: as §7, §8, §9

[10] = tested on: cells at different HER3 surface levels; assay: Internalization of murine 3F8 by cells at different HER3 surface levels; type: cell-based
Description: Murine 3F8 was rapidly taken up by cells at different HER3 surface levels. The cells at different HER3 surface levels were incubated with murine 3F8 on ice (control) or incubated at 37° C. for 1 or 4 h. The internalization fraction was determined by subtracting the 37° C. incubated cell surface signal from the ice incubated control.

rat HER3 [11] = target: rat HER3 (Rattus norvegicus, UniProt Q62799); assay: ELISA binding to rat HER3
Chain of rat HER3 (Rattus norvegicus, UniProt Q62799) (Q62799 20-1339): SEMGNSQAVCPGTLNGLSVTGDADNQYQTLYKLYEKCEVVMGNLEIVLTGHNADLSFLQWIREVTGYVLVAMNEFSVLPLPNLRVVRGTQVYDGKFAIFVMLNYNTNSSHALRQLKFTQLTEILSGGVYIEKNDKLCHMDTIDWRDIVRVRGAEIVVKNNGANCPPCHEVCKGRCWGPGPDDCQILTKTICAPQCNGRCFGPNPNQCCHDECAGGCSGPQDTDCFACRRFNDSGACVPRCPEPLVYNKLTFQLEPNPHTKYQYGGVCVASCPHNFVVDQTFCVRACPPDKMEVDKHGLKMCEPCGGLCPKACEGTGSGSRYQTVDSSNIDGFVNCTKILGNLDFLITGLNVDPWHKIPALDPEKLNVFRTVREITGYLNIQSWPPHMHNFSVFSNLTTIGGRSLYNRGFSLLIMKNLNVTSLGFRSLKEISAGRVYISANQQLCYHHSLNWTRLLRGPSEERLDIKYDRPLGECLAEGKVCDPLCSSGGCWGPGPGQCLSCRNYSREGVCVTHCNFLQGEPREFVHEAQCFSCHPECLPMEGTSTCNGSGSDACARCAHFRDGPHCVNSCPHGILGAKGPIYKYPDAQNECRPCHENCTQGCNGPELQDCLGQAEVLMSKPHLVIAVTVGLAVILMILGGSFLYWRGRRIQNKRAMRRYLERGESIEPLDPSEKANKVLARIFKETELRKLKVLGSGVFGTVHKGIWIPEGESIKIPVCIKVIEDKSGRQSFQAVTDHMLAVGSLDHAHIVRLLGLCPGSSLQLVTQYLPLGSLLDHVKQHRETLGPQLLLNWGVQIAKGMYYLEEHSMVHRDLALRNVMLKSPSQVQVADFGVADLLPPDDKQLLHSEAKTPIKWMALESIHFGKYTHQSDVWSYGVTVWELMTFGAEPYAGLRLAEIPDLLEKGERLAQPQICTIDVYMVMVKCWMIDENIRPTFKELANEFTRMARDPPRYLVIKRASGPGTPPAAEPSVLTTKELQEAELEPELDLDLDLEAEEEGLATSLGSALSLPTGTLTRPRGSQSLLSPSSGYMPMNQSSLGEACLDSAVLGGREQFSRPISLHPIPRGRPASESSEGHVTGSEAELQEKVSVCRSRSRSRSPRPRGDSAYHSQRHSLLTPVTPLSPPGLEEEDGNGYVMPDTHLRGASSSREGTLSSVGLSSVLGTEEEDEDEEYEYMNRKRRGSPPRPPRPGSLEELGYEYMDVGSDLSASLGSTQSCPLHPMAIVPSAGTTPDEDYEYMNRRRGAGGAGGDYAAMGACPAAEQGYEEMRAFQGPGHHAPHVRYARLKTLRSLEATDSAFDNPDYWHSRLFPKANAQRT
Description: as §7, §8, §9

human EGFR = target: T7, human EGFR (Homo sapiens, UniProt P00533); assay: ELISA binding to human EGFR
T7 construct: His
Description: as §7, §5, §2

human HER2 = target: T8, human HER2 (Homo sapiens, UniProt P04626); assay: ELISA binding to human HER2
T8 construct: human HER2-ex-huFc; human Fc (huFc)
Description: as §7, §5, §2

[12] = tested on: NRG1-induced HER3 phosphorylation; assay: NRG1-induced HER3 phosphorylation, western blot in NCI-N87, MDA-MB-468 and MDA-MB-453; type: cell-based
Description: Western blot assay: the protein separated by SDS-PAGE was transferred to a nitrocellulose membrane for Western blot. The primary antibodies used were as follows: anti-HER2 (cell signaling, Catl #: 2165S), anti-HER3 (cell signaling, Catl #: 12708), anti-p-HER3 (cell signaling, Catl #: 4791), and anti-β-actin (cell signal transduction, Catl #: 4967).
HER3 phosphorylation induced by NRG1: the cells were cultured in a 6-well plate and used for an experiment when the confluency reached 80%. On the day of the experiment, the cells were washed twice with PBS, incubated for 6 h in a serum-free medium, and then induced overnight with 10 μg/mL of the antibody. To induce HER3 phosphorylation, NRG1 was added to a working concentration of 100 ng/mL 30 min before the cells were collected for Western blot.
Murine 3F8 blocked NRG1-induced HER3 phosphorylation. NCI-N87, MDA-MB-468 and MDA-MB-453 were treated with NRG1, the HER3 ligand, to induce downstream phosphorylation of HER3.
The effect of murine 3F8 in inhibiting NRG1-induced p-HER3 was determined by western blot.

SP2/0-HER3 cells = target: T9, SP2/0-HER3 cells (Homo sapiens, UniProt P21860); assay: FACS binding of murine 3F8 to SP2/0 cells overexpressing HER3; settings: PE-anti-mouse secondary antibody
T9 construct: expressed in transfected cells; host or cells: SP2/0 (mouse myeloma) stably expressing human HER3
Description: as §6
as §3, with “5×10^6” for “5×10⁶”
as §4

mouse HER3 [13] = target: mouse HER3 (Mus musculus, UniProt Q61526); assay: ELISA binding to mouse HER3
Chain of mouse HER3 (Mus musculus, UniProt Q61526) (Q61526 20-1339): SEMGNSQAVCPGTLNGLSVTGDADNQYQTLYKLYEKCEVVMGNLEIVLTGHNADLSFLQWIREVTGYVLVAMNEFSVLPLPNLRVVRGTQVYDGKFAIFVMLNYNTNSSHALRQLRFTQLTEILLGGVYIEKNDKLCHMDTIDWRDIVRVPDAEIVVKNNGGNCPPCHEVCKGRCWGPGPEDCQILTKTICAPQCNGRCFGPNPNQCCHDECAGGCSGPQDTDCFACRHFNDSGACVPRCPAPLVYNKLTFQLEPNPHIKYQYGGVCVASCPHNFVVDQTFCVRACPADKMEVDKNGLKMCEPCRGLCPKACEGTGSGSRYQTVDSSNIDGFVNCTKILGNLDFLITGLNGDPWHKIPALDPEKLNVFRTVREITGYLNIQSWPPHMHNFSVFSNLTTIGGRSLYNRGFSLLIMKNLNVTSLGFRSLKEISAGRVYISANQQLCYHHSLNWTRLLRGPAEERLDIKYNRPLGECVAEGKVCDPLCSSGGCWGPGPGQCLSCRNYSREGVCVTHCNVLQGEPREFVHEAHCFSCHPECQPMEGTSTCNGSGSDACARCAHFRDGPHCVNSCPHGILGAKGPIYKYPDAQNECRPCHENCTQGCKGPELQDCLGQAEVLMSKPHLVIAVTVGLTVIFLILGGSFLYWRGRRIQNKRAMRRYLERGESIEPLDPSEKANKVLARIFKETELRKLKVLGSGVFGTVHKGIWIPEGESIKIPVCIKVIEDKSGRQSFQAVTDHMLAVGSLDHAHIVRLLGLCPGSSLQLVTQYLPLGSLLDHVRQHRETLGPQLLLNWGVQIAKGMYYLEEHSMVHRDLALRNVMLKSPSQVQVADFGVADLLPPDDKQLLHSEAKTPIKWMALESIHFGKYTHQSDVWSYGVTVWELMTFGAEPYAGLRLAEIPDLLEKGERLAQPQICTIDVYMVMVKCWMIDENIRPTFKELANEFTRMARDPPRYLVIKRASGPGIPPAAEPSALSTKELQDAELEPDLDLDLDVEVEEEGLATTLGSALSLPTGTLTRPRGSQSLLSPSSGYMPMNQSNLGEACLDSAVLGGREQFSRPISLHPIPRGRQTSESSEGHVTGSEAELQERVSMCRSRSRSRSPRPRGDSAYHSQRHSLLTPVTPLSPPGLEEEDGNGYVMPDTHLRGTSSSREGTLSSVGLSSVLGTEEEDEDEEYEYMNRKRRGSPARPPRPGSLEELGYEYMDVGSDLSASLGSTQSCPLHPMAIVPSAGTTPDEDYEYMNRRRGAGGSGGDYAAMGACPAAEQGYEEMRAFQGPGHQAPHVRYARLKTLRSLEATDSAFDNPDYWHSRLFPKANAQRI
Description: as §7, §8, §9

[14] = tested on: BT474 subcutaneous xenograft model; assay: Tumor growth in BT474 subcutaneous xenograft model; type: in vivo, mouse; settings: 25 mg/kg intravenously once every two weeks for three weeks; one-way analysis of variance p<0.05
Description: In vivo efficacy study: the animals were maintained and used according to the IACUC guidelines. BALC/b nude mice and NPG mice, purchased from Charles River and SPF Biotech, respectively, were housed at 25° C. in a 12-h dark/light cycle with free access to food and drink. A patient-derived xenograft (PDX) model was generated by subcutaneous implantation of cryopreserved tissue fragments. Animals were initiated with drug treat when the tumor size reached 100-200 mm^3 and were euthanized when the tumor size was 1000 mm^3. The health condition was monitored daily. Tumor size and body weight were monitored and recorded every 3 days.
The anti-HER3 antibody was effective in inhibiting tumor growth in the BT474 subcutaneous xenograft model. The anti-HER3 antibody 3F8, 3D4, or 3F8+3D4 combination was injected intravenously at 25 mg/kg once every two weeks for three weeks. Tumor size was monitored every 3-4 days. Both 3F8 and 3D4 are anti-HER3 antibodies. 3F8 is a murine antibody.

B1: murine 3F8 antibody (antibody, V domains shown)
VH: DVQLQESGPGLVKPSQSLSLTCSVTGYSITSAYYWNWIRQFPGDKLEWMGYISYDGRNNFNPSLKNRISITRDTSKNQFFLKLNSVTSGDTATYYCARDGDYDYFDYWGQGTTLTVSS
VL: DIQMTQTTSSLSASLGDRVTISCRASQDISNYLNWYQQKPDGTFKLLIYYTSILHSGVPSRFSGSGSGTDYSLTISNLEQEDIATYFCQQGDTLPPTFGAGTKLELK
notes: Mouse hybridoma antibody, made by hybridoma or recombinantly; also called m3F8
EC50 (human HER3-huFc [1]): 0.11 nM and 0.0165 µg/mL | binding result [2]: no binding | binding result (human HER2-ex-huFc): no binding (tested: about 10^1.2 nM (about 16 nM)) | binding result (human EGFR-his): no binding (tested: about 10^1.2 nM (about 16 nM)) | binding result [3]: no binding | EC50 (human HER3-huFc [4]): 0.164 nM and 0.0245 µg/mL | EC50 (cynomolgus monkey HER3 [5]): 0.185 nM and 0.0278 µg/mL | binding result (mouse HER3 [6]): no binding (tested: about 10^1.2 nM (about 15 nM)) | binding result (rat HER3 [7]): no binding (tested: about 10^1.2 nM (about 15 nM))

B2: murine 3F8: murine anti-HER3 antibody 3F8 from hybridoma; VL SEQ ID NO: 15, VH SEQ ID NO: 16 (antibody, V domains shown)
VH: B1 VH
VL: B1 VL
binding to other cells [8]: did not bind | recognition of human HER3 (HER3; ELISA): only recognized HER3 | EC50 (ng/mL) huHER3 (HER3; Table 1): 16.50 ng/mL | HillSlope huHER3 (HER3; Table 1): 1.04 | EC50 (ng/mL) Human HER3 (HER3; Table 2): 24.525 ng/mL | HillSlope Human HER3 (HER3; Table 2): 1.015 | EC50 (ng/mL) Cynomolgus monkey HER3 (cynomolgus monkey HER3 [9]): 27.825 ng/mL | time within which most was taken up ([10]; 37° C.): ≤ 1 h | internalization into the cell ([10]; 37° C. for 1 or 4 h vs ice control): rapidly internalized | recognition of rat HER3 (rat HER3 [11]): did not recognize | recognition of human EGFR (human EGFR): did not recognize | recognition of human HER2 (human HER2): did not recognize | HER2 protein level [12]: no effect | total HER3 protein level [12]: no effect | phosphorylation level of HER3 protein ([12]; NRG1 100 ng/mL, antibody 10 μg/mL): reduced the phosphorylation level | binding to SP2/0-HER3 cells (SP2/0-HER3 cells): specifically bound | recognition of mouse HER3 (mouse HER3 [13]): did not recognize | tumor growth [14]: significantly inhibited the tumor growth
